# Bridge positions count the residues as written; N and C are the ends. Square brackets hold non-standard residues; d marks the D form. Ends that are not written are not given here. Peptide text beside a SMILES is read from it. * marks the point of attachment. Benzoyl(4-NO2) = O=C(c1ccc([N+](=O)[O-])cc1)*; Pro(5R-Ph) = O=C(O)[C@@H]1CC[C@H](c2ccccc2)N1; d1Nal = N[C@H](Cc1cccc2ccccc12)C(=O)O; dBta = N[C@H](Cc1csc2ccccc12)C(=O)O; Cyclohexylacetyl = O=C(CC1CCCCC1)*; NMeR = CN[C@@H](CCCNC(=N)N)C(=O)O; dCit = NC(=O)NCCC[C@@H](N)C(=O)O; dPen = CC(C)(S)[C@@H](N)C(=O)O; dNMeV = CN[C@@H](C(=O)O)C(C)C; Agp = N=C(N)NC[C@H](N)C(=O)O; Pentanoyl = CCCCC(=O)*; βAla = NCCC(=O)O; Sar = CNCC(=O)O
# Target: T1, αvβ3 integrin (human, UniProt P06756 31-1048; P05106 27-788)
# T1 construct: whole, on cells; Same entry used for αvβ3-K562, U-87 MG and A375M cells; also called αvβ3-K562; αvβ3 transfected K562 cells
# T1 sequence (P06756 31-1048, chain 1 of 2): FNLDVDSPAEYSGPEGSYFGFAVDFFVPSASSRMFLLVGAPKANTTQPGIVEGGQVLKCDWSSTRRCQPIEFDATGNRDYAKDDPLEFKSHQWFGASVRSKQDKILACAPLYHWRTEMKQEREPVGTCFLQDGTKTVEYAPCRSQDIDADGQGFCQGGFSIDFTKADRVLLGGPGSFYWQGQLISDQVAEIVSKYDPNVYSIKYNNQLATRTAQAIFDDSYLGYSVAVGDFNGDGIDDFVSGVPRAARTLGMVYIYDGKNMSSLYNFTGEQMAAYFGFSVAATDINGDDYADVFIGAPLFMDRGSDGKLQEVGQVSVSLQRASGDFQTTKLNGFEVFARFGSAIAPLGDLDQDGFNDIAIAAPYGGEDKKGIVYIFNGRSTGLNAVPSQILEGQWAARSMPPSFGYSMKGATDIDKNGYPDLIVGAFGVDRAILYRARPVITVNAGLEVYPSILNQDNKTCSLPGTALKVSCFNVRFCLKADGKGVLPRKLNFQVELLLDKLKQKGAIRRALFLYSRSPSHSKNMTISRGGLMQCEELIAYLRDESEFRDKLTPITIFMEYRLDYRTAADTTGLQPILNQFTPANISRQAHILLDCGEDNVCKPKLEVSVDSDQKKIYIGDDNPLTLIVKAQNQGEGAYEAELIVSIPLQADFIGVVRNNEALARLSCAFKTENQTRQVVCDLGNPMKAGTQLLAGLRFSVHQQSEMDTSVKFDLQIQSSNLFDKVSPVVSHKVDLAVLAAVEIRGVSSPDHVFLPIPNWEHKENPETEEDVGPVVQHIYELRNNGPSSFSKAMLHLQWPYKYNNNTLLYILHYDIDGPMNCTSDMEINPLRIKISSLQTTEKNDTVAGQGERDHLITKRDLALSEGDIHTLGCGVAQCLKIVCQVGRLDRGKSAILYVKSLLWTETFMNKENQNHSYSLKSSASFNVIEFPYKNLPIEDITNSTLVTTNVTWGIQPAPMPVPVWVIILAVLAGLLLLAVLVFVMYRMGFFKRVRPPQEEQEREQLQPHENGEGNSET
# T1 sequence (P05106 27-788, chain 2 of 2): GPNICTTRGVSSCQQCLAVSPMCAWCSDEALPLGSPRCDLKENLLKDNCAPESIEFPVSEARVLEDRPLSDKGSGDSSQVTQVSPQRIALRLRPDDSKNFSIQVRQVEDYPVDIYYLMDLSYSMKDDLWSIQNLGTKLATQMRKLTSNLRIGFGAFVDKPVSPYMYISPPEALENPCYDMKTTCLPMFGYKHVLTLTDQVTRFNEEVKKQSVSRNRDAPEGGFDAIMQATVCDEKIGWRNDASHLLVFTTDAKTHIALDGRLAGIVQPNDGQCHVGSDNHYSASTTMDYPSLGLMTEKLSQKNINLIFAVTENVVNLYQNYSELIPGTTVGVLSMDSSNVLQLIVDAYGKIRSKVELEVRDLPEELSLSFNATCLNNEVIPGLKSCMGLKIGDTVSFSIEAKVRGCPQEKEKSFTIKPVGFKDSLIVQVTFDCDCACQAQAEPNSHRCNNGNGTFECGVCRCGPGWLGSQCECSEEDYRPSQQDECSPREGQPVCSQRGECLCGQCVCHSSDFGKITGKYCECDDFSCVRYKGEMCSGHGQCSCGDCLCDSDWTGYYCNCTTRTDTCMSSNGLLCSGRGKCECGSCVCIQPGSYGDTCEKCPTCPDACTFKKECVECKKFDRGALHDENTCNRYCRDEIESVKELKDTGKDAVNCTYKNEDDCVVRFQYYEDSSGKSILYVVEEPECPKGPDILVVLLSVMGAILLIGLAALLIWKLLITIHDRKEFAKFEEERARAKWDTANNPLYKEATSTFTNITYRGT
# Assay: flow cytometry, competition with biotinylated LXW7 on αvβ3-K562 cells; ++ = IC50 1-10 µM
# Details: not given
row,IC50 [nM],Molecule
1,1000 to 10000,CGRGD[dD][dV][dC]-NH2 (disulfide 1-8; N-terminus assumed; SMILES CC(C)[C@H]1NC(=O)[C@@H](CC(=O)O)NC(=O)[C@H](CC(=O)O)NC(=O)CNC(=O)[C@H](CCCNC(=N)N)NC(=O)CNC(=O)[C@@H](N)CSSC[C@H](C(N)=O)NC1=O) [LXW9]
2,1000 to 10000,[dC]GRGD[dCit][dBta][dC]-NH2 (disulfide 1-8; N-terminus assumed; SMILES N=C(N)NCCC[C@@H]1NC(=O)CNC(=O)[C@H](N)CSSC[C@H](C(N)=O)NC(=O)[C@@H](Cc2csc3ccccc23)NC(=O)[C@@H](CCCNC(N)=O)NC(=O)[C@H](CC(=O)O)NC(=O)CNC1=O) [LXW73]
3,1000 to 10000,"CGRGD[dD][d1Nal]C-NH2 (disulfide 1-8; N-terminus assumed; SMILES N=C(N)NCCC[C@@H]1NC(=O)CNC(=O)[C@@H](N)CSSC[C@@H](C(N)=O)NC(=O)[C@@H](Cc2cccc3ccccc23)NC(=O)[C@@H](CC(=O)O)NC(=O)[C@H](CC(=O)O)NC(=O)CNC1=O, also called CGRGDd-DNal1-C) [LXW47]"
4,1000 to 10000,[dC]GRGD[dD][dV]C-NH2 (disulfide 1-8; N-terminus assumed; SMILES CC(C)[C@H]1NC(=O)[C@@H](CC(=O)O)NC(=O)[C@H](CC(=O)O)NC(=O)CNC(=O)[C@H](CCCNC(=N)N)NC(=O)CNC(=O)[C@H](N)CSSC[C@@H](C(N)=O)NC1=O) [LXW10]
5,1000 to 10000,[dC][dA]RGD[dD][dV][dC]-NH2 (disulfide 1-8; N-terminus assumed; SMILES CC(C)[C@H]1NC(=O)[C@@H](CC(=O)O)NC(=O)[C@H](CC(=O)O)NC(=O)CNC(=O)[C@H](CCCNC(=N)N)NC(=O)[C@@H](C)NC(=O)[C@H](N)CSSC[C@H](C(N)=O)NC1=O) [LXW13]
6,1000 to 10000,[dC][βAla]RGD[dD][dV][dC]-NH2 (disulfide 1-8; N-terminus assumed; SMILES CC(C)[C@H]1NC(=O)[C@@H](CC(=O)O)NC(=O)[C@H](CC(=O)O)NC(=O)CNC(=O)[C@H](CCCNC(=N)N)NC(=O)CCNC(=O)[C@H](N)CSSC[C@H](C(N)=O)NC1=O) [LXW15]
7,1000 to 10000,[dC]GRGD[dD][dI][dC]-NH2 (disulfide 1-8; N-terminus assumed; SMILES CC[C@@H](C)[C@H]1NC(=O)[C@@H](CC(=O)O)NC(=O)[C@H](CC(=O)O)NC(=O)CNC(=O)[C@H](CCCNC(=N)N)NC(=O)CNC(=O)[C@H](N)CSSC[C@H](C(N)=O)NC1=O) [LXW26]
8,1000 to 10000,[dC]GRGD[dD][dV][dPen]-NH2 (disulfide 1-8; N-terminus assumed; SMILES CC(C)[C@H]1NC(=O)[C@@H](CC(=O)O)NC(=O)[C@H](CC(=O)O)NC(=O)CNC(=O)[C@H](CCCNC(=N)N)NC(=O)CNC(=O)[C@H](N)CSSC(C)(C)[C@H](C(N)=O)NC1=O) [LXW21]
9,1000 to 10000,[dPen]GRGD[dD][dV][dPen]-NH2 (disulfide 1-8; N-terminus assumed; SMILES CC(C)[C@H]1NC(=O)[C@@H](CC(=O)O)NC(=O)[C@H](CC(=O)O)NC(=O)CNC(=O)[C@H](CCCNC(=N)N)NC(=O)CNC(=O)[C@H](N)C(C)(C)SSC(C)(C)[C@H](C(N)=O)NC1=O) [LXW19]
10,1000 to 10000,{p‑chlorophenyl acetyl}-[dC]GRGD[dD][dV][dC]-NH2 (disulfide 1-8) [LXW81]
11,1000 to 10000,Pentanoyl-[dC]GRGD[dD][dV][dC]-NH2 (disulfide 1-8; SMILES CCCCC(=O)N[C@@H]1CSSC[C@H](C(N)=O)NC(=O)[C@@H](C(C)C)NC(=O)[C@@H](CC(=O)O)NC(=O)[C@H](CC(=O)O)NC(=O)CNC(=O)[C@H](CCCNC(=N)N)NC(=O)CNC1=O) [LXW77]
12,1000 to 10000,[dC][Sar]RGD[dD][dV][dC]-NH2 (disulfide 1-8; N-terminus assumed; SMILES CC(C)[C@H]1NC(=O)[C@@H](CC(=O)O)NC(=O)[C@H](CC(=O)O)NC(=O)CNC(=O)[C@H](CCCNC(=N)N)NC(=O)CN(C)C(=O)[C@H](N)CSSC[C@H](C(N)=O)NC1=O) [LXW14]
13,1000 to 10000,[dPen]GRGD[dD][dV][dC]-NH2 (disulfide 1-8; N-terminus assumed; SMILES CC(C)[C@H]1NC(=O)[C@@H](CC(=O)O)NC(=O)[C@H](CC(=O)O)NC(=O)CNC(=O)[C@H](CCCNC(=N)N)NC(=O)CNC(=O)[C@H](N)C(C)(C)SSC[C@H](C(N)=O)NC1=O) [LXW20]
14,1000 to 10000,{Benzoyl(4-NO2)}-[dC]GRGD[dD][dV][dC]-NH2 (disulfide 1-8; SMILES CC(C)[C@H]1NC(=O)[C@@H](CC(=O)O)NC(=O)[C@H](CC(=O)O)NC(=O)CNC(=O)[C@H](CCCNC(=N)N)NC(=O)CNC(=O)[C@H](NC(=O)c2ccc([N+](=O)[O-])cc2)CSSC[C@H](C(N)=O)NC1=O) [LXW82]
15,1000 to 10000,[dC]GRGD[dE][Pro(5R-Ph)][dC]-NH2 (disulfide 1-8; N-terminus assumed; SMILES N=C(N)NCCC[C@@H]1NC(=O)CNC(=O)[C@H](N)CSSC[C@H](C(N)=O)NC(=O)[C@@H]2CC[C@H](c3ccccc3)N2C(=O)[C@@H](CCC(=O)O)NC(=O)[C@H](CC(=O)O)NC(=O)CNC1=O) [LXW71]
16,1000 to 10000,{5‑bromo‑2‑furoyl}-[dC]GRGD[dD][dV][dC]-NH2 (disulfide 1-8) [LXW90]
17,1000 to 10000,Cyclohexylacetyl-[dC]GRGD[dD][dV][dC]-NH2 (disulfide 1-8; SMILES CC(C)[C@H]1NC(=O)[C@@H](CC(=O)O)NC(=O)[C@H](CC(=O)O)NC(=O)CNC(=O)[C@H](CCCNC(=N)N)NC(=O)CNC(=O)[C@H](NC(=O)CC2CCCCC2)CSSC[C@H](C(N)=O)NC1=O) [LXW78]
18,1000 to 10000,nicotinyl-[dC]GRGD[dD][dV][dC]-NH2 (disulfide 1-8) [LXW92]

# Target: αvβ3 integrin (Homo sapiens, UniProt P05106+P06756)
# Sequence (P06756 31-889 limits assumed): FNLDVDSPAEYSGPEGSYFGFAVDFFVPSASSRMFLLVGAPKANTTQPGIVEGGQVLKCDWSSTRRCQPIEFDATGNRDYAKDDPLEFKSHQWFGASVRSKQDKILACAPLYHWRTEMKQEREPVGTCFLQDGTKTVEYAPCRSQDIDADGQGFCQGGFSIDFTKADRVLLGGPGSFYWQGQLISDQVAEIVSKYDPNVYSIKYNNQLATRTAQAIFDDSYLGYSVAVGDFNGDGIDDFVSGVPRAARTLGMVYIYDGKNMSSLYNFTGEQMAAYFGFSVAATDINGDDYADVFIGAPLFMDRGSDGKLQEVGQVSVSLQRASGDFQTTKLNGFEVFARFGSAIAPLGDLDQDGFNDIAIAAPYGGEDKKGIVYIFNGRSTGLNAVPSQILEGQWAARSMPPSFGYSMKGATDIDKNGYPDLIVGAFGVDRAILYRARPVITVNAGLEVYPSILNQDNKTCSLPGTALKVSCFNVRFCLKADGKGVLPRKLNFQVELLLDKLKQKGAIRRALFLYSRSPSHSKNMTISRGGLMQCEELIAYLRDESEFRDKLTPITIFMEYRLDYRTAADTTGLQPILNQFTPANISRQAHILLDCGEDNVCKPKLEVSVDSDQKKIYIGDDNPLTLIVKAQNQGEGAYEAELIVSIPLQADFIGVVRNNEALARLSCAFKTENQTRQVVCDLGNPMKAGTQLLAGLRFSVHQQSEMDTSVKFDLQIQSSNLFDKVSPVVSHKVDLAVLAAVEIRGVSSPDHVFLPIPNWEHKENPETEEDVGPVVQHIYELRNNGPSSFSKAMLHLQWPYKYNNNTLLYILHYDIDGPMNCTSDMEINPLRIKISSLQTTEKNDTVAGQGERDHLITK
# Sequence (P06756 891-1048 partner limits assumed): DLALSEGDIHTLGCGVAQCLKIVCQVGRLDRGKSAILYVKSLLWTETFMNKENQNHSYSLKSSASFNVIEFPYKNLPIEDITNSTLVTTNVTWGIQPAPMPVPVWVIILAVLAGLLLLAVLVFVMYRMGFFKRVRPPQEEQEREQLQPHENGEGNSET
# Sequence (P05106 27-788): as the sequence (P05106 27-788, chain 2 of 2) above
# Assay: Inhibition of biotinylated LXW7 binding to αvβ3-K562 cells (flow cytometry)
# Parameters: expressed in transfected cells; host or cells: K562 (gift of Dr. Yoshikazu Takada, UC Davis)
# Details: LXW9-92: inhibiting the binding of biotinylated LXW7 against αvβ3-K562 cells, LXW7 as internal reference
# Procedure: The apparent IC50 were calculated using Graph Prism software (≦www.graphpad.com≧).
# The samples were analyzed with Coulter XL-MCL flow cytometry. The histogram and mean fluorescence intensity (MFI) were determined. The apparent Kd, IC50 were calculated using Graph Prism software (≦www.graphpad.com≧).
row,IC50 [nM],Molecule
1,> 20000,"CC(C)[C@H]1NC(=O)[C@@H](CC(=O)O)NC(=O)[C@H](CCC(=O)O)NC(=O)CNC(=O)[C@H](CNC(=N)N)NC(=O)CNC(=O)[C@H](N)CSSC[C@H](C(N)=O)NC1=O [LXW59, cG-Agp-GEdvc] (H-[dC]G[Agp]GE[dD][dV][dC]-NH2; disulfide 1-8)"

# Same assay, conditions: LXW9-92: inhibiting the binding of biotinylated LXW7 against αvβ3-K562 cells; class symbols
row,IC50 [nM],Molecule
1,> 10000,"CC(C)[C@@]1(C)NC(=O)[C@@H](CC(=O)O)NC(=O)[C@H](CC(=O)O)NC(=O)CNC(=O)[C@H](CCCNC(=N)N)NC(=O)CNC(=O)[C@H](N)CSSC[C@H](C(N)=O)NC1=O [LXW23, cGRGDd-D(CaMe)Val-c]"
2,1000 to 10000,"CC(C)[C@H]1NC(=O)[C@@H](CC(=O)O)NC(=O)[C@H](CC(=O)O)NC(=O)CNC(=O)[C@H](CCCNC(=N)N)NC(=O)CN(C)C(=O)[C@H](N)CSSC[C@H](C(N)=O)NC1=O [LXW14, c-Sar-RGDdvc] (H-[dC][Sar]RGD[dD][dV][dC]-NH2; disulfide 1-8)"

# Target: T1, αvβ3 integrin
# Assay: flow cytometry, competition with biotinylated LXW7 on αvβ3-K562 cells; +++ = IC50 <1 µM
# Details: not given
row,IC50 [nM],Molecule
1,< 1000,[dC]GRGD[dD][dNMeV][dC]-NH2 (disulfide 1-8; N-terminus assumed; SMILES CC(C)[C@@H]1C(=O)N[C@@H](C(N)=O)CSSC[C@@H](N)C(=O)NCC(=O)N[C@@H](CCCNC(=N)N)C(=O)NCC(=O)N[C@@H](CC(=O)O)C(=O)N[C@H](CC(=O)O)C(=O)N1C) [LXW22]
2,< 1000,[dC]G[NMeR]GD[dD][dV][dC]-NH2 (disulfide 1-8; N-terminus assumed; SMILES CC(C)[C@H]1NC(=O)[C@@H](CC(=O)O)NC(=O)[C@H](CC(=O)O)NC(=O)CNC(=O)[C@H](CCCNC(=N)N)N(C)C(=O)CNC(=O)[C@H](N)CSSC[C@H](C(N)=O)NC1=O) [LXW53]
3,< 1000,Ac-[dC]GRGD[dD][dV][dC]-NH2 (disulfide 1-8; SMILES CC(=O)N[C@@H]1CSSC[C@H](C(N)=O)NC(=O)[C@@H](C(C)C)NC(=O)[C@@H](CC(=O)O)NC(=O)[C@H](CC(=O)O)NC(=O)CNC(=O)[C@H](CCCNC(=N)N)NC(=O)CNC1=O) [LXW12]
4,< 1000,{3‑amino propanoyl}-[dC]GRGD[dD][dV][dC]-NH2 (disulfide 1-8) [LXW56]

# Source: US9073974B2, “RGD-containing cyclic peptides” (The Regents of the University of California, priority 2009, dated 2015)
